The test system of data set [1] is HeLa Kyoto. The experiment in a line: solubility in G1/S (NP-40 vs SDS abundance) (log2 ratio); higher = more soluble. The following applies: cell cycle stage: G1/S.
The test system of data set [2] is HeLa Kyoto. The experiment in a line: melting temperature (median over replicates), in situ; higher = more thermally stable.
The test system of data set [3] is HeLa Kyoto. The experiment in a line: solubility change mitosis vs G1/S (difference of NP-40 vs SDS log2 ratios) (log2 ratio difference); higher = more soluble in mitosis.
Data set [4] relates to HeLa Kyoto. Nature of the data set: thermal stability score vs G1/S (z-score of summed log2 fold changes over temperatures); higher = more thermally stable than in G1/S.
The mark [5] stands for this setting: cell cycle stage: early G1 (4.5 h after nocodazole release).

The values below come from the supplement of paper PMC5998384.
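For melting temperature (median over replicates), in situ in this document: HeLa Kyoto cells synchronized by double thymidine or nocodazole block, proteins quantified by TMT10plex mass spectrometry, three independent biological replicates.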
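For solubility change mitosis vs G1/S (difference of NP-40 vs SDS log2 ratios) in this document: synchronized HeLa Kyoto cells (double thymidine block for G1/S, nocodazole release for mitosis), protein amounts in NP-40 versus SDS lysates quantified by mass spectrometry, three biological replicates.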
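For solubility in G1/S (NP-40 vs SDS abundance) in this document: HeLa Kyoto cells arrested at G1/S by double thymidine block, proteins quantified by TMT10plex mass spectrometry in mild NP-40 versus SDS extracts, three biological replicates.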
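For thermal stability score vs G1/S (z-score of summed log2 fold changes over temperatures) in this document: synchronized HeLa Kyoto cells, proteins quantified by TMT10plex mass spectrometry, three biological replicates, mitosis taken 0.5 h after nocodazole release, G1/S directly after double thymidine block.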

In the case of “MAVLAALLRSGARSRSPLLRRLVQEIRYVERSYVSKPTLKEVVIVSATRTPIGSFLGSLSLLPATKLGSIAIQGAIEKAGIPKEEVKEAYMGNVLQGGEGQAPTRQAVLGAGLPISTPCTTINKVCASGMKAIMMASQSLMCGHQDVMVAGGMESMSNVPYVMNRGSTPYGGVKLEDLIVKDGLTDVYNKIHMGSCAENTAKKLNIARNEQDAYAINSYTRSKAAWEAGKFGNEVIPVTVTVKGQPDVVVKEDEEYKRVDFSKVPKLKTVFQKENGTVTAANASTLNDGAAALVLMTADAAKRLNVTPLARIVAFADAAVEPIDFPIAPVYAASMVLKDVGLKKEDIAMWEVNEAFSLVVLANIKMLEIDPQKVNINGGAVSLGHPIGMSGARIVGHLTHALKQGEYGLASICNGGGGASAMLIQKL [ACAT1]”, the “solubility in G1/S (log2)” value in data set [1] amounted to 0.493. Also, the melting temperature in data set [2] (cell cycle stage: G1/S) turned out to be 54.5 °C; in data set [2] (cell cycle stage: mitosis), 54.8 °C. Further, the “solubility change mitosis (log2)” value in data set [3] was -0.0153. In addition, the figures for the thermal stability score in data set [4] (setting [5]) and in data set [4] (cell cycle stage: mitosis) were -1.2 and 0.833, respectively.

For MUC16, the “solubility in G1/S (log2)” value in data set [1] was -0.172. The melting temperature in data set [2] (cell cycle stage: G1/S) and in data set [2] (cell cycle stage: mitosis) was 53.5 °C throughout. In addition, the “solubility change mitosis (log2)” value in data set [3] was -0.177. Also, the thermal stability score in data set [4] (setting [5]) is -2.6; in data set [4] (cell cycle stage: mitosis), -5.24.

Regarding “MSRDRFRSRGGGGGGFHRRGGGGGRGGLHDFRSPPPGMGLNQNRGPMGPGPGQSGPKPPIPPPPPHQQQQQPPPQQPPPQQPPPHQPPPHPQPHQQQQPPPPPQDSSKPVVAQGPGPAPGVGSAPPASSSAPPATPPTSGAPPGSGPGPTPTPPPAVTSAPPGAPPPTPPSSGVPTTPPQAGGPPPPPAAVPGPGPGPKQGPGPGGPKGGKMPGGPKPGGGPGLSTPGGHPKPPHRGGGEPRGGRQHHPPYHQQHHQGPPPGGPGGRSEEKISDSEGFKANLSLLRRPGEKTYTQRCRLFVGNLPADITEDEFKRLFAKYGEPGEVFINKGKGFGFIKLESRALAEIAKAELDDTPMRGRQLRVRFATHAAALSVRNLSPYVSNELLEEAFSQFGPIERAVVIVDDRGRSTGKGIVEFASKPAARKAFERCSEGVFLLTTTPRPVIVEPLEQLDDEDGLPEKLAQKNPMYQKERETPPRFAQHGTFEYEYSQRWKSLDEMEKQQREQVEKNMKDAKDKLESEMEDAYHEHQANLLRQDLMRRQEELRRMEELHNQEMQKRKEMQLRQEEERRRREEEMMIRQREMEEQMRRQREESYSRMGYMDPRERDMRMGGGGAMNMGDPYGSGGQKFPPLGGGGGIGYEANPGVPPATMSGSMMGSDMRTERFGQGGAGPVGGQGPRGMGPGTPAGYGRGREEYEGPNKKPRF [SFPQ]”, the “solubility in G1/S (log2)” value in data set [1] was -0.264. Also, the melting temperature in data set [2] (cell cycle stage: G1/S) worked out at 47.7 °C; in data set [2] (cell cycle stage: mitosis), 48.9 °C. Besides, the “solubility change mitosis (log2)” value in data set [3] came out at 0.67. Besides, the results for the thermal stability score in data set [4] (setting [5]) and in data set [4] (cell cycle stage: mitosis) were 4.77 and 7.88, respectively.

For “MEIPPTNYPASRAALVAQNYINYQQGTPHRVFEVQKVKQASMEDIPGRGHKYHLKFAVEEIIQKQVKVNCTAEVLYPSTGQETAPEVNFTFEGETGKNPDEEDNTFYQRLKSMKEPLEAQNIPDNFGNVSPEMTLVLHLAWVACGYIIWQNSTEDTWYKMVKIQTVKQVQRNDDFIELDYTILLHNIASQEIIPWQMQVLWHPQYGTKVKHNSRLPKEVQLE [LXN]”, the “solubility in G1/S (log2)” value in data set [1] was found to be 0.224. The melting temperature in data set [2] (cell cycle stage: G1/S) stood at 51.9 °C; in data set [2] (cell cycle stage: mitosis), 52.3 °C. The “solubility change mitosis (log2)” value in data set [3] was -0.098. In addition, the results for the thermal stability score in data set [4] (setting [5]) and in data set [4] (cell cycle stage: mitosis) were 0.745 and 0.0486, respectively.

For “MQGGEPVSTMKVSESEGKLEGQATAVTPNKNSSCGGGISSSSSSRGGSAKGWQYSDHMENVYGYLMKYTNLVTGWQYRFFVLNNEAGLLEYFVNEQSRNQKPRGTLQLAGAVISPSDEDSHTFTVNAASGEQYKLRATDAKERQHWVSRLQICTQHHTEAIGKNNPPLKSRSFSLASSSNSPISQRRPSQNAISFFNVGHSKLQSLSKRTNLPPDHLVEVREMMSHAEGQQRDLIRRIECLPTSGHLSSLDQDLLMLKATSMATMNCLNDCFHILQLQHASHQKGSLPSGTTIEWLEPKISLSNHYKNGADQPFATDQSKPVAVPEEQPVAESGLLAREPEEINADDEIEDTCDHKEDDLGAVEEQRSVILHLLSQLKLGMDLTRVVLPTFILEKRSLLEMYADFMSHPDLFIAITNGATAEDRMIRFVEYYLTSFHEGRKGAIAKKPYNPIIGETFHCSWKMPKSEVASSVFSSSSTQGVTNHAPLSGESLTQVGSDCYTVRFVAEQVSHHPPVSGFYAECTERKMCVNAHVWTKSKFLGMSIGVTMVGEGILSLLEHGEEYTFSLPCAYARSILTVPWVELGGKVSVNCAKTGYSASITFHTKPFYGGKLHRVTAEVKHNITNTVVCRVQGEWNSVLEFTYSNGETKYVDLTKLAVTKKRVRPLEKQDPFESRRLWKNVTDSLRESEIDKATEHKHTLEERQRTEERHRTETGTPWKTKYFIKEGDGWVYHKPLWKIIPTTQPAE [OSBPL11]”, the “solubility in G1/S (log2)” value in data set [1] was -0.139. Further, the melting temperature in data set [2] (cell cycle stage: G1/S) was determined as 50 °C; in data set [2] (cell cycle stage: mitosis), 50.4 °C. Moreover, in data set [3], the “solubility change mitosis (log2)” value is -0.0415. Further, the figures for the thermal stability score in data set [4] (setting [5]) and in data set [4] (cell cycle stage: mitosis) were 0.575 and 1.25, respectively.

In the case of “MAAAMPLALLVLLLLGPGGWCLAEPPRDSLREELVITPLPSGDVAATFQFRTRWDSELQREGVSHYRLFPKALGQLISKYSLRELHLSFTQGFWRTRYWGPPFLQAPSGAELWVWFQDTVTDVDKSWKELSNVLSGIFCASLNFIDSTNTVTPTASFKPLGLANDTDHYFLRYAVLPREVVCTENLTPWKKLLPCSSKAGLSVLLKADRLFHTSYHSQAVHIRPVCRNARCTSISWELRQTLSVVFDAFITGQGKKDWSLFRMFSRTLTEPCPLASESRVYVDITTYNQDNETLEVHPPPTTTYQDVILGTRKTYAIYDLLDTAMINNSRNLNIQLKWKRPPENEAPPVPFLHAQRYVSGYGLQKGELSTLLYNTHPYRAFPVLLLDTVPWYLRLYVHTLTITSKGKENKPSYIHYQPAQDRLQPHLLEMLIQLPANSVTKVSIQFERALLKWTEYTPDPNHGFYVSPSVLSALVPSMVAAKPVDWEESPLFNSLFPVSDGSNYFVRLYTEPLLVNLPTPDFSMPYNVICLTCTVVAVCYGSFYNLLTRTFHIEEPRTGGLAKRLANLIRRARGVPPL [PIGT]”, in data set [1], the “solubility in G1/S (log2)” value was found to be 0.0123. Also, the figures for the melting temperature in data set [2] (cell cycle stage: G1/S) and in data set [2] (cell cycle stage: mitosis) were 53.8 °C and 52.5 °C, respectively. In addition, in data set [3], the “solubility change mitosis (log2)” value was -0.141. Besides, the thermal stability score was found to be 1.75 in data set [4] (setting [5]) and 1.86 in data set [4] (cell cycle stage: mitosis).

On to “MDAPRQVVNFGPGPAKLPHSVLLEIQKELLDYKGVGISVLEMSHRSSDFAKIINNTENLVRELLAVPDNYKVIFLQGGGCGQFSAVPLNLIGLKAGRCADYVVTGAWSAKAAEEAKKFGTINIVHPKLGSYTKIPDPSTWNLNPDASYVYYCANETVHGVEFDFIPDVKGAVLVCDMSSNFLSKPVDVSKFGVIFAGAQKNVGSAGVTVVIVRDDLLGFALRECPSVLEYKVQAGNSSLYNTPPCFSIYVMGLVLEWIKNNGGAAAMEKLSSIKSQTIYEIIDNSQGFYVCPVEPQNRSKMNIPFRIGNAKGDDALEKRFLDKALELNMLSLKGHRSVGGIRASLYNAVTIEDVQKLAAFMKKFLEMHQL [PSAT1]”, for which the “solubility in G1/S (log2)” value in data set [1] was 0.15. For the same substance, the melting temperature in data set [2] (cell cycle stage: G1/S) and in data set [2] (cell cycle stage: mitosis) was 55.6 °C throughout. In addition, the “solubility change mitosis (log2)” value in data set [3] was -0.136. The thermal stability score is -0.482 in data set [4] (setting [5]) and -0.769 in data set [4] (cell cycle stage: mitosis).
